According to patent US20030190679A1 (Takeda / Millennium, published 2003):

Key:
[1] = molecular target: CARD domain of CARD-12 fused to the DNA-binding domain of pCMV-BD (self-association partner) (human); test: cell-based or functional assay
[2] = molecular target: CARD domain of CARD-5 (ASC) fused to the DNA-binding domain of pCMV-BD (UniProt Q9ULZ3 107-195); test: cell-based or functional assay
[3] = molecular target: T1, myc-tagged CARD-12 (human, UniProt Q9NPP4 1-1024); test: co-immunoprecipitation from 293T lysates (IP anti-T7, blot anti-myc)
T1 construct: Transiently overexpressed in 293T cells
Procedure: FIGS. 10A-10C depict the results of co-immunopreciptation analysis. FIG. 10A: After 24 hrs, extracts were prepared and immunoprecipitated (IP) with a monoclonal antibody to the T7 epitope. The immunoprecipitates were analyzed by SDS-PAGE and immunoblotted with an anti-myc polyclonal antibody. FIG. 10B: The cellular extracts were also immunoblotted (WB) with anti-T7 antibody. FIG. 10C: Extracts were also immunoprecipitated with a monoclonal antibody to myc, followed by WB with an anti-myc polyclonal antibody.
An additional mechanism by which CARD-12 may cause cell death is by the activation of upstream caspases via a CARD/CARD interaction. The proform of caspase-1 and caspase-9 both contain an N-terminal CARD. Therefore, caspase-1 and caspase-9 were investigated as possible CARD-12 signaling partners following transient overexpression in cells. Briefly, 293T cells transfected with plasmids were lysed in 50 mM Tris, pH 8.0, 120 mM NaCl, 1 mM EDTA, 0.5% Nonidet P-40 buffer and incubated with either a T7 (Sigma) or myc monoclonal antibody (SantaCruz Biotechnology, Inc.). The immune complexes were precipitated with protein G-Sepharose (Amersham Pharmacia Bio), washed extensively, and then subjected to SDS-polyacrylamide gel electrophoresis and immunoblotted with polyclonal antibody to myc (SantaCruz). […]

Sequence of CARD domain of CARD-5 (ASC) fused to the DNA-binding domain of pCMV-BD (Q9ULZ3 whole entry, the tested form may be a part): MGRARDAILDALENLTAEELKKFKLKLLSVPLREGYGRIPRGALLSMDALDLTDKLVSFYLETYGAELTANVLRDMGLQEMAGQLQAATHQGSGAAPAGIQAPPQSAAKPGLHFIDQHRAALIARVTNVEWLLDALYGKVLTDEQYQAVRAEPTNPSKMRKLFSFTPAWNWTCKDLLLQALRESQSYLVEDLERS

B1: CARD domain of CARD-12 (residues 1-83) fused to the activation domain of pCMV-AD (plasmid pCMV-CARD-12-CARD/AD) (other, not shown: large carriers)
chain: MNFIKDNSRALIQRMGMTVIKQITDDLFVWNVLNREEVNIICCEKVEQDAARGIIHMILKKGSESCNLFLKSLKEWNYPLFQD
In the case of B1, the “relative luciferase activity (mammalian two-hybrid)” value [1] is reported as 30 fold and the “relative luciferase activity (mammalian two-hybrid)” value [2] is reported as 10 fold.

B2: T7-tagged procaspase-9 (enzyme, UniProt P55211 1-416, looked up, not shown: small tags and cut ends)
chain: MDEADRRLLRRCRLRLVEELQVDQLWDALLSRELFRPHMIEDIQRAGSGSRRDQARQLIIDLETRGSQALPLFISCLEDTGQDMLASFLRTNRQAAKLSKPTLENLTPVVLRPEIRKPEVLRPETPRPVDIGSGGFGDVGALESLRGNADLAYILSMEPCGHCLIINNVNFCRESGLRTRTGSNIDCEKLRRRFSSLHFMVEVKGDLTAKKMVLALLELAQQDHGALDCCVVVILSHGCQASHLQFPGAVYGTDGCPVSVEKIVNIFNGTSCPSLGGKPKLFFIQACGGEQKDHGFEVASTSPEDESPGSNPEPDATPFQEGLRTFDQLDAISSLPTPSDIFVSYSTFPGFVSWRDPKSGSWYVETLDDIFEQWAHSEDLQSLLLRVANAVSVKGIYKQMPGCFNFLRKKLFFKTS
notes: Transiently overexpressed in 293T cells
B2: no binding [3].
